Source: publication PMC10786891, “Massively parallel profiling of RNA-targeting CRISPR-Cas13d”

Biological target: T1, EsCas13d, nuclease-dead (Eubacterium siraeum, UniProt B0MS50, R295A;H300A;R849A;H854A)
T1 sequence: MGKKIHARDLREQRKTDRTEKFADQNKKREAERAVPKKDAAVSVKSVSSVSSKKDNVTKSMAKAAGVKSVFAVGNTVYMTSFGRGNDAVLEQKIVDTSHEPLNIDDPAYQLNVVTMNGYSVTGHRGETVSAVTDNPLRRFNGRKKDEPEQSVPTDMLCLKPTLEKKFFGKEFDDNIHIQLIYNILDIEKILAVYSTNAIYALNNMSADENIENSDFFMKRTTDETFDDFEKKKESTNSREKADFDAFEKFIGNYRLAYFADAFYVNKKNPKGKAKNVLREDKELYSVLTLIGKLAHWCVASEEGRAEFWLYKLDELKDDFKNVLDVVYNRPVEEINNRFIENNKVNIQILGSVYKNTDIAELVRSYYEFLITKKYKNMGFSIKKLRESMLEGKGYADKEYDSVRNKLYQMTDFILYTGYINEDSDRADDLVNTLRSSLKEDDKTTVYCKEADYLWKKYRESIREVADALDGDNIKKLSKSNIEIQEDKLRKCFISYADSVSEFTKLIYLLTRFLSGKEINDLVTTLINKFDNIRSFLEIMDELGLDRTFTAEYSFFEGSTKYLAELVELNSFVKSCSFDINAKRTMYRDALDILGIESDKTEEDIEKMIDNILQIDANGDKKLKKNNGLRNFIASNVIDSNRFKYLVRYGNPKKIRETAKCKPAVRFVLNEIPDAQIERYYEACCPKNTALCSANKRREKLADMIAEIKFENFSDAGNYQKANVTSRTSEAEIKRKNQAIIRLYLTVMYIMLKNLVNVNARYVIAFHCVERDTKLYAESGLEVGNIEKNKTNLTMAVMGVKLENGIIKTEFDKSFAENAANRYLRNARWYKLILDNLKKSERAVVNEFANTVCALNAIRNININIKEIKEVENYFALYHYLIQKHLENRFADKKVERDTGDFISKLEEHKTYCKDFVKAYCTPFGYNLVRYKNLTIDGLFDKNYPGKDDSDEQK
Assay: crRNA (strand 1, pre-loaded); Mg2+; 40 mM Tris-HCl pH 7.5, 150 mM NaCl, 6 mM MgCl2, 1 mM DTT, 0.1% Tween-20, 0.2 mg/ml BSA; 25 C; 10 min per concentration, then washed
Settings: tags: His6-TwinStrep-SUMO cleaved; N-terminal SNAP kept (SNAP-Surface 488); label: 3' end held by stalled T7 RNA polymerase

Binder | Kd
target 1 A1G,U19A (mixed) RNA 1: CACCCGUGCAAAAAUGCAGGGGUCUAAAACUGAGCGGAUAACCUCUCUAUGG RNA 2: GGGAAUGGAUCCACAUCUACGAAUUCGUACCAAAGAGAGGUUAUCCGCUCGCCGAGAUCGGAAGAGCACACGU | 29 ± 4 nM
target 1 U3G,A20C (mixed) RNA 1: CACCCGUGCAAAAAUGCAGGGGUCUAAAACUGAGCGGAUAACCUCUCUAUGG RNA 2: GGGAAUGGAUCCACAUCUACGAAUUCGUACCCUAGAGAGGUUAUCCGCGCACCGAGAUCGGAAGAGCACACGU | 28.1 ± 2.2 nM
target 1 insU 3' of 14,insA 3' of 3 (mixed) RNA 1: CACCCGUGCAAAAAUGCAGGGGUCUAAAACUGAGCGGAUAACCUCUCUAUGG RNA 2: GGGAAUGGAUCCACAUCUACGAAUUCGUACCAUAGAGAUGGUUAUCCGCUACACCGAGAUCGGAAGAGCACACGU | 56 ± 14 nM
target 1 insG 3' of 16,insA 3' of 12 (mixed) RNA 1: CACCCGUGCAAAAAUGCAGGGGUCUAAAACUGAGCGGAUAACCUCUCUAUGG RNA 2: GGGAAUGGAUCCACAUCUACGAAUUCGUACCAUAGAGGAGGAUUAUCCGCUCACCGAGAUCGGAAGAGCACACGU | 45 ± 9 nM
target 1 C7A,A14G (mixed) RNA 1: CACCCGUGCAAAAAUGCAGGGGUCUAAAACUGAGCGGAUAACCUCUCUAUGG RNA 2: GGGAAUGGAUCCACAUCUACGAAUUCGUACCAUAGAGGGGUUAUACGCUCACCGAGAUCGGAAGAGCACACGU | 15.6 ± 0.6 nM
target 1 insU 3' of 22,insG 3' of 2 (mixed) RNA 1: CACCCGUGCAAAAAUGCAGGGGUCUAAAACUGAGCGGAUAACCUCUCUAUGG RNA 2: GGGAAUGGAUCCACAUCUACGAAUUCGUACUCAUAGAGAGGUUAUCCGCUCGACCGAGAUCGGAAGAGCACACGU | 29.1 ± 1.8 nM
target 1 U10G,G13A (mixed) RNA 1: CACCCGUGCAAAAAUGCAGGGGUCUAAAACUGAGCGGAUAACCUCUCUAUGG RNA 2: GGGAAUGGAUCCACAUCUACGAAUUCGUACCAUAGAGAAGUGAUCCGCUCACCGAGAUCGGAAGAGCACACGU | 42 ± 15 nM
target 1 insA 3' of 17,insU 3' of 1 (mixed) RNA 1: CACCCGUGCAAAAAUGCAGGGGUCUAAAACUGAGCGGAUAACCUCUCUAUGG RNA 2: GGGAAUGGAUCCACAUCUACGAAUUCGUACCAUAGAAGAGGUUAUCCGCUCAUCCGAGAUCGGAAGAGCACACGU | 18.5 ± 1.9 nM
target 1 A9G,C21A (mixed) RNA 1: CACCCGUGCAAAAAUGCAGGGGUCUAAAACUGAGCGGAUAACCUCUCUAUGG RNA 2: GGGAAUGGAUCCACAUCUACGAAUUCGUACAAUAGAGAGGUUGUCCGCUCACCGAGAUCGGAAGAGCACACGU | 36 ± 4 nM
target 1 insA 3' of 11 (mixed) RNA 1: CACCCGUGCAAAAAUGCAGGGGUCUAAAACUGAGCGGAUAACCUCUCUAUGG RNA 2: GGGAAUGGAUCCACAUCUACGAAUUCGUACCAUAGAGAGGUAUAUCCGCUCACCGAGAUCGGAAGAGCACACGU | 16.4 ± 0.8 nM
target 1 C7U,A9U (mixed) RNA 1: CACCCGUGCAAAAAUGCAGGGGUCUAAAACUGAGCGGAUAACCUCUCUAUGG RNA 2: GGGAAUGGAUCCACAUCUACGAAUUCGUACCAUAGAGAGGUUUUUCGCUCACCGAGAUCGGAAGAGCACACGU | 6.3 ± 0.4 nM
target 1 insA 3' of 15,insC 3' of 3 (mixed) RNA 1: CACCCGUGCAAAAAUGCAGGGGUCUAAAACUGAGCGGAUAACCUCUCUAUGG RNA 2: GGGAAUGGAUCCACAUCUACGAAUUCGUACCAUAGAGAAGGUUAUCCGCUCCACCGAGAUCGGAAGAGCACACGU | 10.1 ± 1.3 nM
target 1 insA 3' of 17,insG 3' of 1 (mixed) RNA 1: CACCCGUGCAAAAAUGCAGGGGUCUAAAACUGAGCGGAUAACCUCUCUAUGG RNA 2: GGGAAUGGAUCCACAUCUACGAAUUCGUACCAUAGAAGAGGUUAUCCGCUCAGCCGAGAUCGGAAGAGCACACGU | 17.6 ± 1.7 nM
target 1 insG 3' of 20,insA 3' of 11 (mixed) RNA 1: CACCCGUGCAAAAAUGCAGGGGUCUAAAACUGAGCGGAUAACCUCUCUAUGG RNA 2: GGGAAUGGAUCCACAUCUACGAAUUCGUACCAGUAGAGAGGUAUAUCCGCUCACCGAGAUCGGAAGAGCACACGU | 75 ± 33 nM
target 1 insG 3' of 7,insU 3' of 1 (mixed) RNA 1: CACCCGUGCAAAAAUGCAGGGGUCUAAAACUGAGCGGAUAACCUCUCUAUGG RNA 2: GGGAAUGGAUCCACAUCUACGAAUUCGUACCAUAGAGAGGUUAUCGCGCUCAUCCGAGAUCGGAAGAGCACACGU | 7.3 ± 0.5 nM
target 1 insA 3' of 17,insA 3' of 2 (mixed) RNA 1: CACCCGUGCAAAAAUGCAGGGGUCUAAAACUGAGCGGAUAACCUCUCUAUGG RNA 2: GGGAAUGGAUCCACAUCUACGAAUUCGUACCAUAGAAGAGGUUAUCCGCUCAACCGAGAUCGGAAGAGCACACGU | 13.8 ± 0.7 nM
target 1 A1U,U19A (mixed) RNA 1: CACCCGUGCAAAAAUGCAGGGGUCUAAAACUGAGCGGAUAACCUCUCUAUGG RNA 2: GGGAAUGGAUCCACAUCUACGAAUUCGUACCAAAGAGAGGUUAUCCGCUCUCCGAGAUCGGAAGAGCACACGU | 29 ± 4 nM
target 1 insU 3' of 20,insC 3' of 10 (mixed) RNA 1: CACCCGUGCAAAAAUGCAGGGGUCUAAAACUGAGCGGAUAACCUCUCUAUGG RNA 2: GGGAAUGGAUCCACAUCUACGAAUUCGUACCAUUAGAGAGGUUCAUCCGCUCACCGAGAUCGGAAGAGCACACGU | 30 ± 4 nM
target 1 insC 3' of 9,insU 3' of 4 (mixed) RNA 1: CACCCGUGCAAAAAUGCAGGGGUCUAAAACUGAGCGGAUAACCUCUCUAUGG RNA 2: GGGAAUGGAUCCACAUCUACGAAUUCGUACCAUAGAGAGGUUACUCCGCUUCACCGAGAUCGGAAGAGCACACGU | 9.2 ± 0.6 nM
target 1 insU 3' of 22,insC 3' of 9 (mixed) RNA 1: CACCCGUGCAAAAAUGCAGGGGUCUAAAACUGAGCGGAUAACCUCUCUAUGG RNA 2: GGGAAUGGAUCCACAUCUACGAAUUCGUACUCAUAGAGAGGUUACUCCGCUCACCGAGAUCGGAAGAGCACACGU | 36 ± 7 nM
target 1 insG 3' of 3,insA 3' of 3 (mixed) RNA 1: CACCCGUGCAAAAAUGCAGGGGUCUAAAACUGAGCGGAUAACCUCUCUAUGG RNA 2: GGGAAUGGAUCCACAUCUACGAAUUCGUACCAUAGAGAGGUUAUCCGCUGACACCGAGAUCGGAAGAGCACACGU | 6.1 ± 0.4 nM
target 1 A1C,A16C (mixed) RNA 1: CACCCGUGCAAAAAUGCAGGGGUCUAAAACUGAGCGGAUAACCUCUCUAUGG RNA 2: GGGAAUGGAUCCACAUCUACGAAUUCGUACCAUAGCGAGGUUAUCCGCUCCCCGAGAUCGGAAGAGCACACGU | 42 ± 9 nM
target 1 U3A,A20C (mixed) RNA 1: CACCCGUGCAAAAAUGCAGGGGUCUAAAACUGAGCGGAUAACCUCUCUAUGG RNA 2: GGGAAUGGAUCCACAUCUACGAAUUCGUACCCUAGAGAGGUUAUCCGCACACCGAGAUCGGAAGAGCACACGU | 26.3 ± 1.6 nM
target 1 insG 3' of 18,insA 3' of 8 (mixed) RNA 1: CACCCGUGCAAAAAUGCAGGGGUCUAAAACUGAGCGGAUAACCUCUCUAUGG RNA 2: GGGAAUGGAUCCACAUCUACGAAUUCGUACCAUAGGAGAGGUUAUACCGCUCACCGAGAUCGGAAGAGCACACGU | 56 ± 5 nM
target 1 insA 3' of 17,insC 3' of 1 (mixed) RNA 1: CACCCGUGCAAAAAUGCAGGGGUCUAAAACUGAGCGGAUAACCUCUCUAUGG RNA 2: GGGAAUGGAUCCACAUCUACGAAUUCGUACCAUAGAAGAGGUUAUCCGCUCACCCGAGAUCGGAAGAGCACACGU | 12.2 ± 1.2 nM
target 1 insG 3' of 16,insC 3' of 3 (mixed) RNA 1: CACCCGUGCAAAAAUGCAGGGGUCUAAAACUGAGCGGAUAACCUCUCUAUGG RNA 2: GGGAAUGGAUCCACAUCUACGAAUUCGUACCAUAGAGGAGGUUAUCCGCUCCACCGAGAUCGGAAGAGCACACGU | 12.4 ± 0.6 nM
target 1 U3C,G5C (mixed) RNA 1: CACCCGUGCAAAAAUGCAGGGGUCUAAAACUGAGCGGAUAACCUCUCUAUGG RNA 2: GGGAAUGGAUCCACAUCUACGAAUUCGUACCAUAGAGAGGUUAUCCCCCCACCGAGAUCGGAAGAGCACACGU | 6.3 ± 0.7 nM
target 1 G5C,U10C (mixed) RNA 1: CACCCGUGCAAAAAUGCAGGGGUCUAAAACUGAGCGGAUAACCUCUCUAUGG RNA 2: GGGAAUGGAUCCACAUCUACGAAUUCGUACCAUAGAGAGGUCAUCCCCUCACCGAGAUCGGAAGAGCACACGU | 23.2 ± 1.2 nM
